Measured values taken from the DeepSol protein solubility set.

Test: soluble on expression in E. coli; label from the status in PepcDB or PDB records
In the case of “SGIVVSPILIPENQRQPFPRDVGKVVDSDRPEGSKFRLTGKGVDQDPKGTFRINENTGSVSVTRTLDRETIATYQLYVETTDASGKTLEGPVPLEVIVID”, the “soluble on expression in E. coli” value is reported as “soluble”.
For “MAPDLSGTWYVLEGDPGEHLVVEALGERLSGIWTSRELAEAFLAHHPHLGMRVSALESRALKEAYLRALGMLQVEAVMVDYRPGTHRAQVARVKDLLEEVRRA”, the “soluble on expression in E. coli” value was “soluble”.
With “MSLTKEEMRNAILDIFQSNPQSVMNYKQVSHLMGVEAAPQKLMVNSLMEDMAVDDILHEIERGRYRYNALGLIVIGTFERRFNGRNSFIPEGGGTPIFIAERNSAHAMDGDKVKVQLFAKRRGRAPEAAVIEIIEQKQATFVGKIQINRDFAFLVTEDRTLANDIFIPKDNLGNAKNGDKVIVRILEWPEQSKNPIGEVQAVLGPAGDNDAEMNAILAEFGLPYVYPQEVEEAADRLDGKITEEELARREDFRSILTFTIDPKDAKDFDDAISFRPLEDDCYEVGVHIADVSHYVTEGGIIDQEAYNRATSIYLVDRTIPMLPERLCNDLCSLRPDEEKYAYSCIFRMNDEAKVLDYRICHSVIKSDRRFAYEEAQAVIETGEGDCKEAILKLNELAQRLRKERFQNGAIAFERKEVRFEIDEKGRPLGVIVKESKEANKLIEEFMLLANRTVARHIGEETQGKRAKTFVYRIHDLPDPDKLETLSDFIRRFGYKLRTTGSNVEVSKSINSLLDNIQNKPEENLISTVAIRSMAKAIYSTDNIGHYGLAFDFYTHFTSPIRRYPDLMVHRLLTKYLSGGSSVDKNDYEEKCKHSSAMEQLAASAERASIKYKQVEFMSEHLGKVFDGVISGVTEWGLYVELKENMCEGLIPIRCLDDDYYEYDDKNFCLIGRRYRHRYSLGDAITVRVAQANLDRKQLDFEPVSEGHHHHHH” the “soluble on expression in E. coli” value was “soluble”.
In the case of “MSILEQVQPIETMLPERYYTMSTEDMEKRVREIKEKMGKMLFIPGHHYQKDEVVQFSDAVGDSLQLAQVAASNKDAKYIVFCGVHFMAETADMLTTDDQVVILPDMRAGCSMADMADIEQTERAWKELTKLFGDTMIPLTYVNSTAAIKAFCGRNGGATVTSSNAKQMVSWAFTQKERLVFLPDQHLGRNTAYDLGIPLDKMAVWDPHTDSLEYDGDIEEIQVILWKGHCSVHQNFTVKNIESVRKNHSDMNIIVHPECCYEVVAASDYAGSTKYIIDMIESAPPGSKWAIGTEMNLVNRIIQQHPDKEIVSLNPFMCPCLTMNRIDLPHLLWALETIERGEEINVISVDKQVTAEAVLALNRMLERV”, the “soluble on expression in E. coli” value is reported as “not soluble”.
In the case of “GMTSPVAVIARFMPRPDARSALRALLDAMITPTRAEDGCRSYDLYESADGGELVLFERYRSRIALDEHRGSPHYLNYRAQVGELLTRPVAVTVLAPLDEASA”, the “soluble on expression in E. coli” value is reported as “soluble”.
In the case of “MSLAQIVNTERHSRLLPAPSSFEEGVVKFGDKEINIGGPLPTLAKDEKLVRVTHSLCPACYRLLPATIFEKEGKLFIRKICPEHGEFEDLYYADSSLYYKFDYWEYEGKGPKVPYVDLKSPCPYNCGLCPMHHQHSALVNLVITNRCDLSCWYCFFYAEKAGYVYEPTLEQIKFMVDQLKKQDITLVIQVTGGEPTLREDIIEIIKMLRENGVKHIQLNSWGGTFAKLYLEDPDKAIKYARALREAGVNTVYMSFDGTTRKTNPKNHWEIPYTLEVFRRAGMTSVVLVPTVIKTVNDNDLGNIVKFAAYNMDVVRSVNFQPVSLTGMMKRNMRAKFRITIPEVIKNIEEQTDGEITKDSWYPIGTSVVFSRLVEALTGKEQFEMANHPSCGAGTYVYVEWRNHEPHFIPISKFIDLEGLLEYLKEKEEELREGANKVWVASKVLYSIRKFIDKEQGPKDFDVYKMLYNIIIHHNYEALGEWHYRTLFLGSMHFMDLYNYDVQRVMRCDIHYVVPDGRVIPFCTYNVLNDLYRDKVLREYQIPLDKWTKEHGENSLGDAIKYKRIASTLENSEIYKNTYKSFQQMEGHHHHHH”, the “soluble on expression in E. coli” value is reported as “not soluble”.
In the case of “MSYYHHHHHHDYDIPTTENLYFQGAMGSGIPMSLPGSTHSTAAELTGPSLVEVLRARPWFEEPPKAVELEGLAACEGEYSQKYSTMSPLGSGAFGFVWTAVDKEKNKEVVVKFIKKEKVLEDCWIEDPKLGKVTLEIAILSRVEHANIIKVLDIFENQGFFQLVMEKHGSGLDLFAFIDRHPRLDEPLASYIFRQLVSAVGYLRLKDIIHRDIKDENIVIAEDFTIKLIDFGSAAYLERGKLFYTFCGTIEYCAPEVLMGNPYRGPELEMWSLGVTLYTLVFEENPFCELEETVEAAIHPPYLVSKELMSLVSGLLQPVPERRTTLEKLVTDPWVTQPVNLADYTWEEVCRVNKPESGVLSAASLEMGN”, the “soluble on expression in E. coli” value is reported as “soluble”.
For “MSDAIVVGAGPNGLAAAVALARRGLKVTVLEAADEIGGGTRTSELTVPGLLHDHCSAVHPLGVGSPFLRTLGLERYGVTWAWPDVDLAHPLDGGRAGVLVRSMERTVRGLGPDGPAWERLFAPLAEDFDALTEDLLRPVPHLPAHPVELARFGLRALQPATTVARRWRGAEARALFAGAAAHLMHPLTGPTSSAVGLMLVGAAHRFGWPVARGGSRTITDALAALLAQLGGTIETGVRVDSLDQLAAARIVMLDTAPGAAARICGDRLPGRVRSAYEGWRHGPAAFKVDLAVQDGIPWTHEACRRAGTVHLGGTLEEVVRTEAQTAGGRMPERPFVLVGQQYLADPSRSRGDVHPIWAYAHVPHGYPGDATEAVLRQIERFAPGFRDRIVGIAARSTAELARSNTNFVGGDIVGGANTARQVALRPRVALDPYSTGIPGVYLCSAATPPGAGVHGMCGANAARSALRYLDRLEHHHHHH”, the “soluble on expression in E. coli” value was “not soluble”.
For “GPGSMLYRTAVPVPADALVQRNLEFTRTAWKAGLRPDQRDANQLRVVEIDFPLLSRDVVQVKCGNTVATATISCDLVEPSPYRPKHGFFEVHARQLLNERDPLDQSKEIKRISMYLTRLLSGSVLETESLCVIPGRRVWSIDAEVIIVNNDGNAQDVAQWAVMTALQHVRRPELTIRGEDVIVHPPHERDPVPLPLHHIPLSFTFAVCANPQEVQLAVRAATLRSAHAPRAGASSGANADEGDGEAEELGWSSDALQVVVDPSLEEATAAACTVSVALNGEGHVCSLEKADGCYVSIAYLEQCMEIATKLTQALLSQMKESMEAHNAKRTEAVRSQFLWAQQRHGIQAIATPGDEGEHARKSAKTEK”, the “soluble on expression in E. coli” value was “soluble”.
With “LKEILDEMFRDEVQKLKYFLEDVKEEDEELYNKIVDALKLFKENYEIEDIKIPKKIRVFLVKNNILFLNPQKGSLKPQSYLVWNAIKMLL” the “soluble on expression in E. coli” value was “not soluble”.
For “QVQLVESGGGTVPAGGSLRLSCAASGNTLCTYDMSWYRRAPGKGRDFVSGIDNDGTTTYVDSVAGRFTISQGNAKNTAYLQMDSLKPDDTAMYYCKPSLRYGLPGCPIIPWGQGTQVTVSS”, the “soluble on expression in E. coli” value was “soluble”.
In the case of “MRALIRYEDVPSKLWTLPKMTDFWGIGKRTEKRLNKLGISSIKELTNADPLLLKQKLGTIGLQHFFHANGIDESNVRLEHHHHHH”, the “soluble on expression in E. coli” value is reported as “not soluble”.
For “MGSDKIHHHHHHMKWNSNLYDHKHSFVAEYGKSMINFVNVGKDQKILDLGCGTGVLTNELAKNGATVIGTDLSKNMIDKAKTNYPNLIFQVKDATNLSFKNEFDTVFSNAVFHWISNQEKLLHSIYTCLKDNGTLICEFGAQNNISQIQTAFEKVIEQKGYSYCSPFFFPSKEEYKLLLDQAGFEVKHIIEYDRPTPLADGEKGLRNWICQFFASDLLEFSDEQKEQILFETEKLCKNSIWKNNQWVADYRRIQIIAVKNKNNGTK”, the “soluble on expression in E. coli” value was “not soluble”.
For “MGHHHHHHSHMSPVLTQHVSQPITLDEQTQKMKRHLLQDIRRSAYVYRVDCGGCNACEIEIFAAITPVFDAERFGIKVVSSPRHADILLFTGAVTRAMRMPALRAYESAPDHKICVSYGACGVGGGIFHDLYSVWGGSDTIVPIDVWIPGCPPTPAATIHGFAVALGLLQQKIHAVDYRDPTGVTMQPLWPQIPPSQRIAIEREARRLAGYRQGREICDRLLRHLSDDPTGNRVNTWLRDADDPRLNSIVQQLFRVLRGLHD”, the “soluble on expression in E. coli” value was “not soluble”.
With “PATDWLSAETFESDLDETRVPEVPSSLHVRPLVTSIVVSWTPPENQNIVVRGYAIGYGIGSPHAQTIKVDYKQRYYTIENLDPSSHYVITLKAFNNVGEGIPLYESAVTRPHT” the “soluble on expression in E. coli” value was “soluble”.
With “MELFLAGRRVLVTGAGKGIGRGTVQALHATGARVVAVSRTQADLDSLVRECPGIEPVCVDLGDWEATERALGSVGPVDLLVNNAAVALLQPFLEVTKEAFDRSFEVNLRAVIQVSQIVARGLIARGVPGAIVNVSSQCSQRAVTNHSVYCSTKGALDMLTKVMALELGPHKIRVNAVNPTVVMTSMGQATWSDPHKAKTMLNRIPLGKFAEVEHVVNAILFLLSDRSGMTTGSTLPVEGGFWAC” the “soluble on expression in E. coli” value was “soluble”.
For “MSLSHMGIFKFANGTIRVKDLEKSIEFYRDVIGMHELAREKGVVYFGCGADETFDIAIKEGGTGVEQFALQVADEEDIQYYEKKLTNLGISTQRMSNPEPGKKVALRFAAPSGHQLELALMEDRPHYLHPVAGHKGSRGIGILDADHITLHTKDVKGLAEFLQEALDFRVADVFEPAPGVWGAAWTHASDYHHDVALIGTSEDTTLHHFAFLVSGFEDMKRACDLLAQAGYKIETGPGRHGVGGNLFTYFLDPSGNRIELSAEMPRADRSVPHKVWPDFPPAFSTWGALPPESFAKGEGHHHHHH”, the “soluble on expression in E. coli” value was “soluble”.
In the case of “MQNDMSVVLRAGKLLIESGAEVYRVEDTMKHFAKALQIENFEAYVVSSSIIASGINRYGKQEAKVCNTDGVTANLGRLEAVNNLSRQIAKQDLVSPEEIVKQLDLIEHQKD”, the “soluble on expression in E. coli” value is reported as “not soluble”.
For “MGGSHHHHHHGMASALAAVDIRDNLLGISWVDSSWIPILNSGSVLDYFSERSNPFYDRTCNNEVVKMQRLTLEHLNQMVGIEYILLHAQEPILFIIRKQQRQSPAQVIPLADYYIIAGVIYQAPDLGSVINSRVLTAVHGIQSAFDEAMSYCRYHPSKGYWWHFKDHEEQDKVRPKAKRKEEPSSIFQRQRVDALLLDLRQKFPPKFVQLKPGEKPVPVDQTKKEAEPIPETVKPEEKETTKNVQQTVSAKGPPEKRMRLQ”, the “soluble on expression in E. coli” value was “not soluble”.
In the case of “TDESRGKARAAGVESAVLLENKSRLLPLAKEAKIALVGPLATSPDILGGWNVYGEEKDGINVETGLREVFETVEVVSTEYTELSEEDKVAVKAAVQNMDVVVLALGEKNEWGGEAGSLATIRLPEAQYQLAKFVQTLGKPVVITLFNGRPLEVKELAESSDALLELWFPGTEAGRVTADLLSGASNPSGKLSMSFPQTTGQIPVYYNHLRTGRPQTPENKGERYVSHYLDIPNEPFYPFGYGKSYSEF”, the “soluble on expression in E. coli” value is reported as “not soluble”.
With “MDCMRKLDRVDMQLVKILSENSRLTYRELADILNTTRQRIARRIDKLKKLGIIRKFTIIPDIDKLGYMYAIVLIKSKVPSDADKVISEISDIEYVKSVEKGVGRYNIIVRLLLPKDIKDAENLISEFLQRIKNAENVEVILISEVRKFEII” the “soluble on expression in E. coli” value was “soluble”.
In the case of “MKQVSRSALVSFSAEQMFNLVNDVAKYPEFLPGCSGSRIIESSGNGMVASVDVAKAGISKTFTTSNELIPGQAIMMNLVDGPFKTLRGGWIFTALDEQACKVELKLEFEFSSKMIEMAFGKIFNELTSNMVNAFTKRAKQVYECYEYLEHHHHHH”, the “soluble on expression in E. coli” value is reported as “not soluble”.
With “MIEITFLGGGGGRFVTITQVRATGGFFIKASKNIYVDPGPGALVRMWRYKIDPRKVDVLFISHRHTDHCNDAEVLVEGMTYGVTKKRGTLIGSKSVVHGDENHTPALSKYHLDALEEVHAPNPGDRFKIGEDEMIITPSLHSDPTTIGFRLKTSYGDISYIPDTEYFEELVKWHDGARVIIAAVTRPRDMRIPFHLSSEDAVYLLKSMKQKPEVFIMTHAGMKMHFAGPYKEAQFIQNLTGVKTYVAKEGFKVSIGKEISVKTLRPARFVLEHHHHHH” the “soluble on expression in E. coli” value was “soluble”.
For “MIVPEVSSSSTNEANVPESSAGKYTYKDIRDDRVLTYFDLRRGESKTFTVRLQATYAGNFILPAIQCEAMYDAAVQARTKAGRTTVSR”, the “soluble on expression in E. coli” value was “not soluble”.
